In patent US20220145298:

Legend:
[1] = test system: TnsA(A125D)BC + TniQ-Cascade transposition system (Aeromonas salmonicida); assay: cell_activity; conditions: native array, native A.s. target on F plasmid; transposition in E. coli, mate-out; TACC PAM
[2] = test system: TnsA(wt)BC + TniQ-Cascade transposition system (Aeromonas salmonicida); assay: cell_activity; conditions: wild-type TnsA; native array and native target; no detectable transposition

“AGGACUGGAAGAAAUCAUCCAAGUUGGGGACU / TCAGGACCGGAAGGTAGCAGCCAAGGCGGGGGACTCGAGTGCCGGGATGTGGCTGATGGGGCCACCAC / GTGGTGGCCCCATCAGCCACATCCCGGCACTCGAGTCCCCCGCCTTGGCTGCTACCTTCCGGTCCTGA [ffs wild-type guide (10 mismatches) ; ffs target]” was tested, and the activity [1] was 0.0188% and the activity [2] was 0%.
